Experimental data reported in paper PMC10115451 (eLife, 2023).

B1: ANDV-5 (human monoclonal antibody, IgG1) (antibody, V domains shown)
VH: QVQLLQSGAEVKKPGSSVRVSCQSSGDIYNYYGISWVRQAPGQGLEWMGGIIPVYGRPNYVQKFRGRVTFTVDKSTSTAYMELSTLRADDTAVYYCARDTARSHYFGSGNDYGMDVWGQGTTVIVSS
VL: DIVMTQSPLSLPVTPGEPASISCRSSQSLLHSNGFNFVDWYLQKPGQSPQLLIYLGSTRASGVPDRFSGSGSGTDFTLEISRVEAEDVGVYYCMQALQFPRTFGQGTKLDIK
notes: also called rANDV-5; ANDV-5 IgG; source: ExpiCHO cells, transiently transfected, purified (HiTrap MabSelectSure); copies: 2 + 2
B2: ANDV-5 Fab (Fab, V domains shown)
VH: B1 VH
VL: B1 VL
notes: also called Fab ANDV-5; Fab form of ANDV-5; source: ExpiCHO cells, transiently transfected, purified (CaptureSelect CH1-XL)
B3: ANDV-34 (human monoclonal antibody, IgG1) (antibody, V domains shown)
VH: QVHLVQSGGELRKPGSSVKVSCKASGGTFSSFAITWLRQAPGQGLEWVGAYIPVFGSAIHGQKVHGRVTLTADESTTTAYMELSSLRSEDTAVYFCARGPTQNWEYSYYTYFESWGQGTLVTVSS
VL: QIVLTQSPGTLSLSPGERATLSCRASQSVTSRYLAWYQQKPGQAPRLLIYDTSSRATGIPDRFSGSGSETDFTLTISRLAPEDFAVYYCQQYGTSPAVTFGQGTRLEIK
notes: also called rANDV-34; source: ExpiCHO cells, transiently transfected, purified (HiTrap MabSelectSure); copies: 2 + 2

What was measured:
[1] = target: T1, ANDV Gc (Andes virus Gc ectodomain) (Andes virus, NP_604472.1 (Chile-9717869), UniProt Q9E006); assay: ELISA; conditions: both partners purified
T1 construct: source: Drosophila S2 cells, purified
T1 sequence (Q9E006 652-1107): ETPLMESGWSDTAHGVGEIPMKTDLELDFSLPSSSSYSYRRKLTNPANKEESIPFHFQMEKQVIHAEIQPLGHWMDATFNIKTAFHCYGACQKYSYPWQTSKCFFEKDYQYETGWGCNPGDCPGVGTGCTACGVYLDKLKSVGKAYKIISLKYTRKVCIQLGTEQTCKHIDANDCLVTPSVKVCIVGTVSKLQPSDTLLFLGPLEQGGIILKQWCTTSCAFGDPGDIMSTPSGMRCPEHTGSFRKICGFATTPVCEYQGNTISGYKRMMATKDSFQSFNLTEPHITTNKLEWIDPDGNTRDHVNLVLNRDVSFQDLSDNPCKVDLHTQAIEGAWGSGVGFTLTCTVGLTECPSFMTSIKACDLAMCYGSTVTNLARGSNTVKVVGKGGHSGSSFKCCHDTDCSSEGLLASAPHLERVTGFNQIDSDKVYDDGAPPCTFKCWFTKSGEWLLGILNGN

[2] = target: T2, ANDV Gn^B (Andes virus Gn base domain) (Andes virus, NP_604472.1 (Chile-9717869), UniProt Q9E006); assay: ELISA; conditions: both partners purified
T2 construct: source: Drosophila S2 cells, purified
T2 sequence (Q9E006 375-484): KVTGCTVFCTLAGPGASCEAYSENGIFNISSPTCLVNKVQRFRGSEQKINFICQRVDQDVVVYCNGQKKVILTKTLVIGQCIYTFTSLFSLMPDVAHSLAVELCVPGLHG

[3] = target: MAPV Gn^H/Gc (linked Maporal virus Gn head domain and Gc ectodomain) (Maporal virus, strain HV-97021050, UniProt Q5MYC0); assay: ELISA; conditions: both partners purified
[4] = target: T3, ANDV Gn/Gc (Andes virus glycoproteins from the full-length M segment, on the cell surface) (Andes virus, GenBank AF291703.2 …, UniProt Q9E006); assay: flow cytometry on cells; conditions: one partner purified
T3 construct: source: Expi293F cells, transfected, on the cell surface
T3 sequence (Q9E006 whole entry, looked up): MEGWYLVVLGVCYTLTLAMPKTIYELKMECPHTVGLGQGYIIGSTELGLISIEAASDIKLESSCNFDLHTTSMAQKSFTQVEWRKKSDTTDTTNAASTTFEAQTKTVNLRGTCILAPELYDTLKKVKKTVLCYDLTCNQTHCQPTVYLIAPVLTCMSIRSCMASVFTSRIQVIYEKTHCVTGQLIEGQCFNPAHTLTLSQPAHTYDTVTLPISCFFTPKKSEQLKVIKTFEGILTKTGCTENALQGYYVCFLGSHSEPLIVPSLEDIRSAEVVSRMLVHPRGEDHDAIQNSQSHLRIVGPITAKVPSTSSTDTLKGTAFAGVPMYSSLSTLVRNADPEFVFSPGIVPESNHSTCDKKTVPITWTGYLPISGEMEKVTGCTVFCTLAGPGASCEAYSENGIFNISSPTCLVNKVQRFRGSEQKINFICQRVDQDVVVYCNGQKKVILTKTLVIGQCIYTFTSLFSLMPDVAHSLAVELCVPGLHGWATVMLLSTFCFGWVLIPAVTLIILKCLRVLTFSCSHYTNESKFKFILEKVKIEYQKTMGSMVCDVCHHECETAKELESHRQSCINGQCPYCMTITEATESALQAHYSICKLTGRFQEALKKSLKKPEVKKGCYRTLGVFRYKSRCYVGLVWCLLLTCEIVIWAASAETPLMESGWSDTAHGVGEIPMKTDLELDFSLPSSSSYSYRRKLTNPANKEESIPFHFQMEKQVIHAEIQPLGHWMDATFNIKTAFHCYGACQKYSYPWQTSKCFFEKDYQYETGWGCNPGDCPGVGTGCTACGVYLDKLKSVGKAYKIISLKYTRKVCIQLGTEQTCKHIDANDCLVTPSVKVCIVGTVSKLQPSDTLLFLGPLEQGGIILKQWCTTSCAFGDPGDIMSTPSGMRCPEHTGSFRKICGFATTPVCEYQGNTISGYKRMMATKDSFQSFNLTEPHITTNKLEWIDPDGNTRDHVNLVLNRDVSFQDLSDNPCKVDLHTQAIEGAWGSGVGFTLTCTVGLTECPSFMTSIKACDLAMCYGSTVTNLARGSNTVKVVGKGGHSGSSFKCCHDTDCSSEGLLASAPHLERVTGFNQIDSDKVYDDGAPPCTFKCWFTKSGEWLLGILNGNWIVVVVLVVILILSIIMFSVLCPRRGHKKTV

Binder	binding result [1]	binding result [2]	binding result [3]	binding result [4]
B1	no binding	no binding	binds	binds
B2				binds
B3	no binding	no binding	no binding	binds
